Results reported in the RNAGym collection of RNA variant scans (doi:10.1093/molbev/msab373).

B1: Azoarcus group I ribozyme (parent)
chain: GUGCCUUGCGCCGGGAAACCACGCAAGGGAUGGUGUCAAAUUCGGCGAAACCUAAGCGCCCGCCCGGGCGUAUGGCAACGCCGAGCCAAGCUUCGGCGCCUGCGCCGAUGAAGGUGUAGAGACUAGACGGCACCCACCUAAGGCAAACGCUAUGGUGAAGGCAUAGUCCAGGGAGUGGCGAAAGUCACACAAACCGG

Variants of: B1
Assay: reverse-splicing fitness (ratio to wild type); higher = more active; in vitro selection; Mg2+ level not given
Summary of the method: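 An in vitro group I ribozyme library with randomized positions was T7-transcribed and gel-purified. In triplicate, 10 pmol RNA in EPPS pH 7.5 was reacted with 50 pmoles of a 30-nt RNA substrate for 1 h at 37 °C across several added MgCl2 levels (1–48 mM), then stopped with EDTA. Products were reverse transcribed from a substrate-complementary primer, PCR-amplified and sequenced (HiSeq 4000). Fitness is a variant's read proportion after selection over that before, normalised to wild type.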

Q: Which reverse-splicing fitness does the source give for A111C A120C C150G here?
A: 0.0496

Q: Which reverse-splicing fitness does the source give for A111C A120C C150U here?
A: 0.362

Q: With A111C A120C C150A as the variant, how does the reverse-splicing fitness read?
A: 0.0821

Q: With A111C A120C A145U C150U C169G U176C as the variant, how does the reverse-splicing fitness read?
A: 0.0132

Q: For A111C A120C A145U C150U C169G U176G, which reverse-splicing fitness is on record?
A: 0.00667

Q: For A111C A120C A145U C150U C169G U176A, which reverse-splicing fitness is on record?
A: 0.0128

Q: With A111C A120C A145U C150G C169A as the variant, how does the reverse-splicing fitness read?
A: 0.00797

Q: With A111C A120C A145U C150G C169G as the variant, how does the reverse-splicing fitness read?
A: 0.00671

Q: Which reverse-splicing fitness does the source give for A111C A120C A145U C150G C169U here?
A: 0.0234

Q: Which reverse-splicing fitness does the source give for A111C A120C A145G C169A U176G here?
A: 0.0054

Q: Which reverse-splicing fitness does the source give for A111C A120C A145G C169A U176A here?
A: 0.0222

Q: With A111C A120C A145G C169A U176C as the variant, how does the reverse-splicing fitness read?
A: 0.0284

Q: With A111C A120C A145U C150G C169U U176A as the variant, how does the reverse-splicing fitness read?
A: 0.00997

Q: For A111C A120C A145U C150G C169U U176G, which reverse-splicing fitness is on record?
A: 0.00656

Q: With A111C A120C A145U C150G C169U U176C as the variant, how does the reverse-splicing fitness read?
A: 0.0173

Q: Which reverse-splicing fitness does the source give for A111C A120C C150U U176G here?
A: 0.0275

Q: Which reverse-splicing fitness does the source give for A111C A120C C150U U176C here?
A: 0.153

Q: Which reverse-splicing fitness does the source give for A111C A120C C150U U176A here?
A: 0.128

Q: For A111C A120C C150U C169G U176G, which reverse-splicing fitness is on record?
A: 0.00557

Q: For A111C A120C C150U C169G U176A, which reverse-splicing fitness is on record?
A: 0.0124

Q: Which reverse-splicing fitness does the source give for A111C A120C C150U C169G U176C here?
A: 0.0164

Q: For A111C A120C C169U U176C, which reverse-splicing fitness is on record?
A: 0.0446

Q: With A111C A120C C169U U176G as the variant, how does the reverse-splicing fitness read?
A: 0.0068

Q: With A111C A120C C169U U176A as the variant, how does the reverse-splicing fitness read?
A: 0.031

Q: For A111C A120C A145U C150G C169A U176G, which reverse-splicing fitness is on record?
A: 0.00619

Q: With A111C A120C A145U C150G C169A U176A as the variant, how does the reverse-splicing fitness read?
A: 0.0107

Q: For A111C A120C A145U C150G C169A U176C, which reverse-splicing fitness is on record?
A: 0.00906

Q: Which reverse-splicing fitness does the source give for A111C A120C C150U C169A here?
A: 0.0123

Q: With A111C A120C C150U C169U as the variant, how does the reverse-splicing fitness read?
A: 0.113

Q: With A111C A120C C150U C169G as the variant, how does the reverse-splicing fitness read?
A: 0.00843

Q: Which reverse-splicing fitness does the source give for A111C A120C A145U C150U U176A here?
A: 0.146

Q: With A111C A120C A145U C150U U176G as the variant, how does the reverse-splicing fitness read?
A: 0.0336

Q: With A111C A120C A145U C150U U176C as the variant, how does the reverse-splicing fitness read?
A: 0.174

Q: With A111C A120C A145U C150U C169A U176C as the variant, how does the reverse-splicing fitness read?
A: 0.00838

Q: With A111C A120C A145U C150U C169A U176G as the variant, how does the reverse-splicing fitness read?
A: 0.00715

Q: Which reverse-splicing fitness does the source give for A111C A120C A145U C150U C169A U176A here?
A: 0.012

Q: For A111C A120C C169U, which reverse-splicing fitness is on record?
A: 0.183

Q: For A111C A120C C169G, which reverse-splicing fitness is on record?
A: 0.00921

Q: Which reverse-splicing fitness does the source give for A111C A120C C169A here?
A: 0.0116

Q: Which reverse-splicing fitness does the source give for A111C A120C C150U C169U U176C here?
A: 0.0327

Q: Which reverse-splicing fitness does the source give for A111C A120C C150U C169U U176A here?
A: 0.0275

Q: For A111C A120C C150U C169U U176G, which reverse-splicing fitness is on record?
A: 0.0066

Q: For A111C A120C C150G C169U, which reverse-splicing fitness is on record?
A: 0.02

Q: For A111C A120C C150G C169A, which reverse-splicing fitness is on record?
A: 0.00914

Q: For A111C A120C C150G C169G, which reverse-splicing fitness is on record?
A: 0.00757

Q: With A111C A120G A145C C150A as the variant, how does the reverse-splicing fitness read?
A: 0.0117

Q: With A111C A120G A145C C150A C169A U176A as the variant, how does the reverse-splicing fitness read?
A: 0.0112

Q: For A111C A120G A145C C150A C169A U176G, which reverse-splicing fitness is on record?
A: 0.0054

Q: Which reverse-splicing fitness does the source give for A111C A120G A145C C150A C169A U176C here?
A: 0.00698

Q: For A111C A120C C150A C169A U176G, which reverse-splicing fitness is on record?
A: 0.00693

Q: Which reverse-splicing fitness does the source give for A111C A120C C150A C169A U176A here?
A: 0.0162

Q: For A111C A120C C150A C169A U176C, which reverse-splicing fitness is on record?
A: 0.0141

Q: With A111C A120C A145U C150U C169U U176A as the variant, how does the reverse-splicing fitness read?
A: 0.028

Q: With A111C A120C A145U C150U C169U U176G as the variant, how does the reverse-splicing fitness read?
A: 0.00661

Q: For A111C A120C A145U C150U C169U U176C, which reverse-splicing fitness is on record?
A: 0.0374

Q: For A111C A120C C150G C169G U176C, which reverse-splicing fitness is on record?
A: 0.00683

Q: With A111C A120C C150G C169G U176A as the variant, how does the reverse-splicing fitness read?
A: 0.00796

Q: With A111C A120C C150G C169G U176G as the variant, how does the reverse-splicing fitness read?
A: 0.00564

Q: Which reverse-splicing fitness does the source give for A111C A120C A145U C150A C169A U176C here?
A: 0.0085

Q: With A111C A120C A145U C150A C169A U176G as the variant, how does the reverse-splicing fitness read?
A: 0.0061

Q: For A111C A120C A145U C150A C169A U176A, which reverse-splicing fitness is on record?
A: 0.0108

Q: Which reverse-splicing fitness does the source give for A111C A120C A145G C150U U176G here?
A: 0.0297

Q: With A111C A120C A145G C150U U176C as the variant, how does the reverse-splicing fitness read?
A: 0.18

Q: For A111C A120C A145G C150U U176A, which reverse-splicing fitness is on record?
A: 0.159

Q: For A111C A120C C150U C169A U176G, which reverse-splicing fitness is on record?
A: 0.00561

Q: Which reverse-splicing fitness does the source give for A111C A120C C150U C169A U176A here?
A: 0.0172

Q: Which reverse-splicing fitness does the source give for A111C A120C C150U C169A U176C here?
A: 0.0142

Q: Which reverse-splicing fitness does the source give for A111C A120G A145C C150A C169A here?
A: 0.0103

Q: Which reverse-splicing fitness does the source give for A111C A120G A145C C150A C169G here?
A: 0.0149

Q: With A111C A120G A145C C150A C169U as the variant, how does the reverse-splicing fitness read?
A: 0.0139

Q: For A111C A120C A145U C150A C169U U176C, which reverse-splicing fitness is on record?
A: 0.0144

Q: Which reverse-splicing fitness does the source give for A111C A120C A145U C150A C169U U176G here?
A: 0.00632

Q: For A111C A120C A145U C150A C169U U176A, which reverse-splicing fitness is on record?
A: 0.0195

Q: For A111C A120C A145U C169U U176A, which reverse-splicing fitness is on record?
A: 0.035

Q: For A111C A120C A145U C169U U176C, which reverse-splicing fitness is on record?
A: 0.0445

Q: With A111C A120C A145U C169U U176G as the variant, how does the reverse-splicing fitness read?
A: 0.00761

Q: For A111C A120C A145G C169G U176G, which reverse-splicing fitness is on record?
A: 0.00588

Q: For A111C A120C A145G C169G U176A, which reverse-splicing fitness is on record?
A: 0.0201

Q: Which reverse-splicing fitness does the source give for A111C A120C A145G C169G U176C here?
A: 0.0244

Q: For A111C A120C A145U C169A U176G, which reverse-splicing fitness is on record?
A: 0.00762

Q: For A111C A120C A145U C169A U176C, which reverse-splicing fitness is on record?
A: 0.0102

Q: With A111C A120C A145U C169A U176A as the variant, how does the reverse-splicing fitness read?
A: 0.0135

Q: With A111C A120C U176C as the variant, how does the reverse-splicing fitness read?
A: 0.204
